Laboratory results taken from article PMC3561454.

Target: Csk (UniProt P41240)
Experiment: p140Cap IP, Csk western blot
Settings: reference: wild type, sites Y264,Y396

Substance	binding against the reference	binding against the reference (FBS time course)
p140Cap (from UniProt Q9C0H9) Y264F/Y396F double mutant	lost	
p140Cap (from UniProt Q9C0H9) Y264F/Y396F double mutant, FBS time course		lost
